Patent US20080311122A1, “Antagonists of Hmgb1 and/or Rage and Methods of Use Thereof” (Medimmune, LLC, priority 2005, published 2008)

Target: T1, recombinant HMG1 purified from E. coli as a calmodulin binding protein (CBP) fusion protein (human)
T1 chain: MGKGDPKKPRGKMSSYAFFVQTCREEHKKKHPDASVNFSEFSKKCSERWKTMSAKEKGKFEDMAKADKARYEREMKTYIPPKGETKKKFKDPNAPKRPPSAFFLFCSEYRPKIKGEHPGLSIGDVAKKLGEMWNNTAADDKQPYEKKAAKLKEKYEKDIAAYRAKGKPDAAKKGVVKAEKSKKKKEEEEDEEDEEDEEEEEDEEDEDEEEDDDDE
Experiment: BIAcore, mAb immobilized, HMG1 injected, steady-state model
Conditions: remark: other sources report otherwise

Row | Binder | Kd [nM]
1 | anti-HMG1 antibody G2 (antibody, V domains shown) VH: EVQLLESGGGLVQPGGSLRLSCAASGFTFSWYKMQWVRQAPGKGLEWVSGISPSGGSTAYADSVKGRFTISRDNSKNTLYLQMNSLRAEDTAVYYCAKMGLFNTGNSYVDYWGQGTLVTVSS VL: AQSELTQPPSVSEAPGQRVTISCSGSTSNIGNNAVIWYQQLPGKAPKLLIYYDDLLPSGVSDRFSGSKSGTSGSLAISGLQSEDEADYYCASWDDNLNGPLFGGGTKLTVL | 101
2 | anti-HMG1 antibody S17 (antibody, V domains shown) VH: EVQLLESGGGLVQPGGSLRLSCAASGFTFSYYDMHWVRQAPGKGLEWVSRISPSGGYTWYADSVKGRFTISRDNSKNTLYLQMNSLRAEDTAVYYCTRGRYTSGWHEYFDPWGQGTLVTVSS VL: AQDIQMTQSPSSLSASVGDRVTITCRASQSIGTYLNWYQQKPGTAPKVLIYAASSLQSGVPSRFSGSGSGTDFTLTISSLQPEDFSTYYCQQSYNTPRTFGQGTKLEIK | 331
3 | anti-HMG1 antibody G20 (antibody, V domains shown) VH: EVQLLESGGGLVQPGGSLRLSCAASGFTFSWYDMFWVRQAPGKGLEWVSWISPSGGYTKYADSVKGRFTISRDNSKNTLYLQMNSLRAEDTAMYYCARSGLDYYDSSGYLDAFDIWGQGTMVTVSS VL: AQDIQMTQSPSSVSASVGDRVTITCRASQDVSIWLAWYQQKPGKAPKLLIFGASRLQSGVPSRFSGSRSGADFTLTIDSVQPEDFASYYCQQADSFPLTFGGGTKVEIK | 114
